# Data: PMC9352680, “A comprehensive thermodynamic model for RNA binding by the Saccharomyces cerevisiae Pumilio protein PUF4”
# T1: PUF4 RNA-binding domain (Saccharomyces cerevisiae, UniProt P25339 537-888)
# T1 sequence: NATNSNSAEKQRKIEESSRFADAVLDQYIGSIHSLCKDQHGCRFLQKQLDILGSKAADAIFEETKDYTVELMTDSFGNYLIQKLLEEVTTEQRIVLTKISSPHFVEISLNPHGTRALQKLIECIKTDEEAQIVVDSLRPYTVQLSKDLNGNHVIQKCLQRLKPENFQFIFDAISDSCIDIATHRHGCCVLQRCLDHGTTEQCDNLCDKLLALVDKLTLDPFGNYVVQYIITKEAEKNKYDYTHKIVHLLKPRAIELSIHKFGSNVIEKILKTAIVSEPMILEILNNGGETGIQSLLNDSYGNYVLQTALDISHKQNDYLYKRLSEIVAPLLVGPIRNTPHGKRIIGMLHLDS
# Target: T1, PUF4 RNA-binding domain
# Experiment: Mg; RNA-MaP; 20 mM Na-HEPES pH 7.4, 30 mM KOAc, 0.75 mM MgCl2, 0.1% Tween-20, 5% glycerol, 0.1 mg/mL BSA, 2 mM DTT; 25 C; 0.0125-409.6 nM protein
# Details: tags: N-His6-TEV cleaved; C-SNAP kept, Cy3B-labelled; label: tethered on chip by stalled RNA polymerase
row,Binder,Kd [nM]
1,UCUCUUUCACACUUAUUAUUUCUCUU (ssRNA) [Id_ii_S1_P5E.4_K5.3_C5.2_[C-2T]_[T-1C]_H5.3_A5.1_F5.1_T5.2_[A12T]],> 2300
2,UCUCUUUGUAUUAUCUUCUCUU (ssRNA) [Ic_S1_P5E.1_K5.1_C5.1_H5.1_A5.1_F5.1_[T9C]_[A10T]_T5.1],18
3,UCUCUUUCACACUUAUUAUGUCUCUU (ssRNA) [Id_ii_S1_P5E.4_K5.3_C5.2_[C-2T]_[T-1C]_H5.3_A5.1_F5.1_T5.2_[A12G]],> 2300
4,UCUCUUAUACACUUAUUACGUCUCUU (ssRNA) [Id_ii_S1_P5E.4_K5.3_C5.2_[C-2A]_H5.3_A5.1_F5.1_T5.2_[T11C]_[A12G]],907
5,UCUCUUUCACACUUAUUAUCUCUCUU (ssRNA) [Id_ii_S1_P5E.4_K5.3_C5.2_[C-2T]_[T-1C]_H5.3_A5.1_F5.1_T5.2_[A12C]],> 2300
6,UCUCUUCGACACUUAUUAACUCUCUU (ssRNA) [Id_ii_S1_P5E.4_K5.3_C5.2_[T-1G]_H5.3_A5.1_F5.1_T5.2_[T11A]_[A12C]],> 2300
7,UCUCUUUUACACUUAUUAAAUCUCUU (ssRNA) [Id_ii_S1_P5E.4_K5.3_C5.2_[C-2T]_H5.3_A5.1_F5.1_T5.2_[T11A]],> 2300
8,UCUCUUACACACUUAUUAGCUCUCUU (ssRNA) [Id_ii_S1_P5E.4_K5.3_C5.2_[C-2A]_[T-1C]_H5.3_A5.1_F5.1_T5.2_[T11G]_[A12C]],> 2300
9,UCUCUUUUACACUUAUUACCUCUCUU (ssRNA) [Id_ii_S1_P5E.4_K5.3_C5.2_[C-2T]_H5.3_A5.1_F5.1_T5.2_[T11C]_[A12C]],> 2300
10,UCUCUUCGACACUUAUUAAUUCUCUU (ssRNA) [Id_ii_S1_P5E.4_K5.3_C5.2_[T-1G]_H5.3_A5.1_F5.1_T5.2_[T11A]_[A12T]],> 2300
11,UCUCUUUGUAUUAUGGUCUCUU (ssRNA) [Ib_S1_P5E.1_K5.1_C5.1_H5.1_A5.1_F5.1_[T9G]_[A10G]_T5.1],7.8
12,UCUCUUAUACACUUAUUAUCUCUCUU (ssRNA) [Id_ii_S1_P5E.4_K5.3_C5.2_[C-2A]_H5.3_A5.1_F5.1_T5.2_[A12C]],435
13,UCUCUUAGACACUUAUUAACUCUCUU (ssRNA) [Id_ii_S1_P5E.4_K5.3_C5.2_[C-2A]_[T-1G]_H5.3_A5.1_F5.1_T5.2_[T11A]_[A12C]],> 2300
14,UCUCUUUAACACUUAUUAUCUCUCUU (ssRNA) [Id_ii_S1_P5E.4_K5.3_C5.2_[C-2T]_[T-1A]_H5.3_A5.1_F5.1_T5.2_[A12C]],> 2300
15,UCUCUUAUACACUUAUUACUUCUCUU (ssRNA) [Id_ii_S1_P5E.4_K5.3_C5.2_[C-2A]_H5.3_A5.1_F5.1_T5.2_[T11C]_[A12T]],666
16,UCUCUUUUACACUUAUUAUCUCUCUU (ssRNA) [Id_ii_S1_P5E.4_K5.3_C5.2_[C-2T]_H5.3_A5.1_F5.1_T5.2_[A12C]],> 2300

row,Binder,Kd [nM]
1,UCUCUUUGUAUUAUCGUCUCUU (ssRNA) [Ib_S1_P5E.1_K5.1_C5.1_H5.1_A5.1_F5.1_[T9C]_[A10G]_T5.1],30.6
2,UCUCUUAUACACUUAUUAAUUCUCUU (ssRNA) [Id_ii_S1_P5E.4_K5.3_C5.2_[C-2A]_H5.3_A5.1_F5.1_T5.2_[T11A]_[A12T]],517
3,UCUCUUUGUAUUAUGCUCUCUU (ssRNA) [Ib_S1_P5E.1_K5.1_C5.1_H5.1_A5.1_F5.1_[T9G]_[A10C]_T5.1],15.2
4,UCUCUUAAACACUUAUUAUUUCUCUU (ssRNA) [Id_ii_S1_P5E.4_K5.3_C5.2_[C-2A]_[T-1A]_H5.3_A5.1_F5.1_T5.2_[A12T]],> 2300
5,UCUCUUAGACACUUAUUACCUCUCUU (ssRNA) [Id_ii_S1_P5E.4_K5.3_C5.2_[C-2A]_[T-1G]_H5.3_A5.1_F5.1_T5.2_[T11C]_[A12C]],> 2300
6,UCUCUUUAACACUUAUUACCUCUCUU (ssRNA) [Id_ii_S1_P5E.4_K5.3_C5.2_[C-2T]_[T-1A]_H5.3_A5.1_F5.1_T5.2_[T11C]_[A12C]],> 2300
7,UCUCUUUAACACUUAUUACGUCUCUU (ssRNA) [Id_ii_S1_P5E.4_K5.3_C5.2_[C-2T]_[T-1A]_H5.3_A5.1_F5.1_T5.2_[T11C]_[A12G]],> 2300
8,UCUCUUAAACACUUAUUACGUCUCUU (ssRNA) [Id_ii_S1_P5E.4_K5.3_C5.2_[C-2A]_[T-1A]_H5.3_A5.1_F5.1_T5.2_[T11C]_[A12G]],> 2300
9,UCUCUUACACACUUAUUACCUCUCUU (ssRNA) [Id_ii_S1_P5E.4_K5.3_C5.2_[C-2A]_[T-1C]_H5.3_A5.1_F5.1_T5.2_[T11C]_[A12C]],> 2300
10,UCUCUUAGACACUUAUUACUUCUCUU (ssRNA) [Id_ii_S1_P5E.4_K5.3_C5.2_[C-2A]_[T-1G]_H5.3_A5.1_F5.1_T5.2_[T11C]_[A12T]],> 2300
11,UCUCUUUGUAUUAUGUUCUCUU (ssRNA) [Ib_S1_P5E.1_K5.1_C5.1_H5.1_A5.1_F5.1_[T9G]_[A10T]_T5.1],10.8
12,UCUCUUAAACACUUAUUACCUCUCUU (ssRNA) [Id_ii_S1_P5E.4_K5.3_C5.2_[C-2A]_[T-1A]_H5.3_A5.1_F5.1_T5.2_[T11C]_[A12C]],> 2300
13,UCUCUUACACACUUAUUAAAUCUCUU (ssRNA) [Id_ii_S1_P5E.4_K5.3_C5.2_[C-2A]_[T-1C]_H5.3_A5.1_F5.1_T5.2_[T11A]],> 2300
14,UCUCUUUGUAUUAUCCUCUCUU (ssRNA) [Ib_S1_P5E.1_K5.1_C5.1_H5.1_A5.1_F5.1_[T9C]_[A10C]_T5.1],26.8
15,UCUCUUUCACACUUAUUAUAUCUCUU (ssRNA) [Id_ii_S1_P5E.4_K5.3_C5.2_[C-2T]_[T-1C]_H5.3_A5.1_F5.1_T5.2],> 2300
